This assay has as its target HLA-A*02:01 (Homo sapiens, UniProt P04439, D140Y/D185E/D98H/E176V/E277Q/G131W/G231S/I119V/I121R/I166T/I218V/L300P/L318F/N151K/N90K/P208A/P217A/Q86G/Q94H/R138H/R169H/T345S). Nature of the assay: MHC binding assay (UV-ligand exchange, beta2m ELISA). To be noted: binding to HLA-A*02:01 ranged by peptide exchange yield (UV-ligand exchange, β2m ELISA). In outline: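 UV-cleavable ligand in peptide-MHC complexes was exchanged for test peptide. Exchange yield came from an ELISA on streptavidin-captured complexes diluted 100 fold, detecting β2m with HRP anti-β2m (2 ug/ml, 1 h, 37° C.), TMB, A450.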
A general note: ELISA stands for enzyme-linked immunosorbent assay.
As to “241 (SLVEVNPAYSV; listed as Homo sapiens) [compound 241]”, the Peptide exchange result is ““+++” (≥50 = +++)”.
Turning to “635 (SLDSTLHAV; listed as Homo sapiens) [compound 635]”, the Peptide exchange entry is given as ““+++” (≥50 = +++)”.
For the substance “54 (SLLEQGKEPWMV; listed as Homo sapiens) [compound 54]”, the Peptide exchange result was ““+++” (≥50 = +++)”.
For the substance “229 (RLPGPLGTV; listed as Homo sapiens) [compound 229]”, the Peptide exchange entry was ““++” (≥20% = ++)”.
As for “462 (KLAKQPETV; listed as Homo sapiens) [compound 462]”, the Peptide exchange entry is reported as ““+++” (≥50 = +++)”.
In the case of “137 (TLVLTLPTV; listed as Homo sapiens) [compound 137]”, the Peptide exchange result is reported as ““++++” (≥75% = ++++)”.
The result for “232 (ALLEAQDVELYL; listed as Homo sapiens) [compound 232]” reads ““++” (≥20% = ++)”; that for “529 (LLADELITV; listed as Homo sapiens) [compound 529]”, ““+++” (≥50 = +++)”; that for “80 (FLYDNLVESL; listed as Homo sapiens) [compound 80]”, ““++” (≥20% = ++)”.
Consider “25 (FLPDEPYIKV; listed as Homo sapiens) [compound 25]”, for which the Peptide exchange result is ““+++” (≥50 = +++)”.
With “174 (ALAQYLITA; listed as Homo sapiens) [compound 174]”, the Peptide exchange result is ““+++” (≥50 = +++)”.
With “379 (IMEGTLTRV; listed as Homo sapiens) [compound 379]”, the Peptide exchange entry is on record as ““++” (≥20% = ++)”.
For “114 (SLVGEPILQNV; listed as Homo sapiens) [compound 114]”, the Peptide exchange entry is reported as ““++” (≥20% = ++)”.
In the case of “400 (SLLTEQDLWTV; listed as Homo sapiens) [compound 400]”, the Peptide exchange result was ““++” (≥20% = ++)”.
Regarding “51 (LLPDLEFYV; listed as Homo sapiens) [compound 51]”, the Peptide exchange entry is ““++++” (≥75% = ++++)”.
“19 (FMVDNEAIYDI; listed as Homo sapiens) [compound 19]”: the Peptide exchange result is ““++++” (≥75% = ++++)”.
As for “238 (YLISFQTHI; listed as Homo sapiens) [compound 238]”, the Peptide exchange entry was ““+++” (≥50 = +++)”.
For “552 (GLLDLPFRVGV; listed as Homo sapiens) [compound 552]”, the Peptide exchange result is recorded as ““++++” (≥75% = ++++)”.
As to “576 (ILLNNSGQIKL; listed as Homo sapiens) [compound 576]”, the Peptide exchange entry was ““++++” (≥75% = ++++)”.
On to “405 (ALYDVFLEV; listed as Homo sapiens) [compound 405]”, for which the Peptide exchange result is ““++” (≥20% = ++)”.
With “523 (YQIPRTFTL; listed as Homo sapiens) [compound 523]”, the Peptide exchange entry was ““++” (≥20% = ++)”.
On to “193 (QLLDADGFLNV; listed as Homo sapiens) [compound 193]”, for which the Peptide exchange result is ““+++” (≥50 = +++)”.
The result for “616 (VLIDEVESL; listed as Homo sapiens) [compound 616]” reads ““+++” (≥50 = +++)”; that for “518 (KLNAEVACV; listed as Homo sapiens) [compound 518]”, ““+++” (≥50 = +++)”.
Consider “257 (SIFSAFLSV; listed as Homo sapiens) [compound 257]”, for which the Peptide exchange entry is recorded as ““+++” (≥50 = +++)”.
For “395 (ALALGGIAVV; listed as Homo sapiens) [compound 395]”, the Peptide exchange result is reported as ““++++” (≥75% = ++++)”.
For “362 (TLYGLSVLL; listed as Homo sapiens) [compound 362]” the value was ““+++” (≥50 = +++)”; for “61 (FLQGYQLHL; listed as Homo sapiens) [compound 61]”, ““++++” (≥75% = ++++)”; for “461 (VMFRTPLASV; listed as Homo sapiens) [compound 461]”, ““++” (≥20% = ++)”.
As for “201 (RLVDYLEGI; listed as Homo sapiens) [compound 201]”, the Peptide exchange result was ““+++” (≥50 = +++)”.
For “602 (YLLEQIKLIEV; listed as Homo sapiens) [compound 602]”, the Peptide exchange entry is given as ““++++” (≥75% = ++++)”.
On to “298 (VMITKLVEV; listed as Homo sapiens) [compound 298]”, for which the Peptide exchange result is on record as ““+++” (≥50 = +++)”.
In the case of “227 (ALMNTLLYL; listed as Homo sapiens) [compound 227]”, the Peptide exchange result was ““++” (≥20% = ++)”.
“188 (GLFPVTPEAV; listed as Homo sapiens) [compound 188]”: the Peptide exchange entry is on record as ““+++” (≥50 = +++)”.
Regarding “204 (KIAENVEEV; listed as Homo sapiens) [compound 204]”, the Peptide exchange entry was ““++” (≥20% = ++)”.
Turning to “252 (LLIGTDVSL; listed as Homo sapiens) [compound 252]”, the Peptide exchange result is recorded as ““+++” (≥50 = +++)”.
As for “90 (TLLQIIETV; listed as Homo sapiens) [compound 90]”, the Peptide exchange result is given as ““+++” (≥50 = +++)”.
Regarding “43 (VLSSLEINI; listed as Homo sapiens) [compound 43]”, the Peptide exchange entry is given as ““++” (≥20% = ++)”.
Regarding “202 (ALLDQQGSRWTL; listed as Homo sapiens) [compound 202]”, the Peptide exchange result is given as ““+++” (≥50 = +++)”.
Consider “130 (FLWNGEDSALL; listed as Homo sapiens) [compound 130]”, for which the Peptide exchange result is listed as ““+++” (≥50 = +++)”.
Take “129 (GLLDGGVDILL; listed as Homo sapiens) [compound 129]”: the Peptide exchange result is listed as ““+++” (≥50 = +++)”.
On to “270 (LLLDEEGTFSL; listed as Homo sapiens) [compound 270]”, for which the Peptide exchange result was ““++” (≥20% = ++)”.
As to “214 (FLLDLDPLLL; listed as Homo sapiens) [compound 214]”, the Peptide exchange result is recorded as ““+++” (≥50 = +++)”.
The result for “281 (ILRESTEEL; listed as Homo sapiens) [compound 281]” reads ““+++” (≥50 = +++)”.
For “457 (SLLPGNLVEKV; listed as Homo sapiens) [compound 457]”, the Peptide exchange result was ““+++” (≥50 = +++)”.
In the case of “459 (ALITEVVRL; listed as Homo sapiens) [compound 459]”, the Peptide exchange entry is recorded as ““++” (≥20% = ++)”.
For “133 (KVLSNIHTV; listed as Homo sapiens) [compound 133]”, the Peptide exchange entry was ““++” (≥20% = ++)”.
For “622 (RLLGEEVVRVLQA; listed as Homo sapiens) [compound 622]” the value was ““+++” (≥50 = +++)”; for “120 (ALLGIPLTLV; listed as Homo sapiens) [compound 120]”, ““+++” (≥50 = +++)”; for “212 (ALWDQDNLSV; listed as Homo sapiens) [compound 212]”, ““++” (≥20% = ++)”.
Regarding “561 (YLQLTQSEL; listed as Homo sapiens) [compound 561]”, the Peptide exchange result is on record as ““+++” (≥50 = +++)”.
Regarding “243 (LLLNELPSV; listed as Homo sapiens) [compound 243]”, the Peptide exchange result is ““+++” (≥50 = +++)”.
On to “358 (ALDEYTSEL; listed as Homo sapiens) [compound 358]”, for which the Peptide exchange result is listed as ““++++” (≥75% = ++++)”.
For “46 (ILTEENIHL; listed as Homo sapiens) [compound 46]” the value was ““+++” (≥50 = +++)”; for “116 (YHIDEEVGF; listed as Homo sapiens) [compound 116]”, ““+” (≥10% = +)”; for “261 (YVLEFLEEI; listed as Homo sapiens) [compound 261]”, ““++” (≥20% = ++)”.
For “517 (LLMPIPEGLTL; listed as Homo sapiens) [compound 517]” the value was ““+++” (≥50 = +++)”.
On to “125 (VQIHQVAQV; listed as Homo sapiens) [compound 125]”, for which the Peptide exchange entry is on record as ““+++” (≥50 = +++)”.
Turning to “249 (LLDGFLVNV; listed as Homo sapiens) [compound 249]”, the Peptide exchange result was ““+++” (≥50 = +++)”.
Take “335 (YSLSSVVTV; listed as Homo sapiens) [compound 335]”: the Peptide exchange entry is ““+++” (≥50 = +++)”.
Turning to “526 (RLAEVGQYEQV; listed as Homo sapiens) [compound 526]”, the Peptide exchange entry is recorded as ““++” (≥20% = ++)”.
Consider “124 (ALYETELADA; listed as Homo sapiens) [compound 124]”, for which the Peptide exchange result was ““++” (≥20% = ++)”.
Consider “302 (ALLQEGEVYSA; listed as Homo sapiens) [compound 302]”, for which the Peptide exchange result is ““+++” (≥50 = +++)”.
As for “520 (LAVHPSGVAL; listed as Homo sapiens) [compound 520]”, the Peptide exchange entry is on record as ““+” (≥10% = +)”.
As for “569 (KLVDRTWTL; listed as Homo sapiens) [compound 569]”, the Peptide exchange entry was ““+++” (≥50 = +++)”.
Regarding “508 (ILAQEQLVVGV; listed as Homo sapiens) [compound 508]”, the Peptide exchange result was ““+++” (≥50 = +++)”.
Regarding “394 (LLAVIGGLVYL; listed as Homo sapiens) [compound 394]”, the Peptide exchange entry is on record as ““+++” (≥50 = +++)”.
As for “183 (FGLDLVTEL; listed as Homo sapiens) [compound 183]”, the Peptide exchange result is given as ““+++” (≥50 = +++)”.
The result for “580 (LLMENAERV; listed as Homo sapiens) [compound 580]” reads ““++” (≥20% = ++)”; that for “623 (YLVEDIQHI; listed as Homo sapiens) [compound 623]”, ““+++” (≥50 = +++)”; that for “92 (YLIPFTGIVGL; listed as Homo sapiens) [compound 92]”, ““++” (≥20% = ++)”.
